From PMC5650471

Target: wild-type human ADORA2A adenosine A2A receptor (construct terminated at residue 316, N154Q, C-terminal 8x His and Protein C tags) (human) (UniProt P29274)
UniProt P29274, sequence (P29274 1-316 N154Q): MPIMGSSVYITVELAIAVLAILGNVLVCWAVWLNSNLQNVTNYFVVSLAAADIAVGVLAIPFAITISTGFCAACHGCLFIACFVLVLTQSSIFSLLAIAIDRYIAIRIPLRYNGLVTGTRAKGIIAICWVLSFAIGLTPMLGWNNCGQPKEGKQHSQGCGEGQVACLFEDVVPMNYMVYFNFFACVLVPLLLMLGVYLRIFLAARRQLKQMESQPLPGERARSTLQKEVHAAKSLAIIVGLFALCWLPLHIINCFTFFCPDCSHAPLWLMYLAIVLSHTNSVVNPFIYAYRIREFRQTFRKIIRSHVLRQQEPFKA

Substance: Gs heterotrimer (complex)
- [35S]GTPγS binding to perdeuterated purified A2AR reconstituted with purified Gs heterotrimer in phospholipid vesicles; reduction of basal activity by inverse agonist ZM241385: 50%
- [35S]GTPγS binding to perdeuterated purified A2AR reconstituted with purified Gs heterotrimer in phospholipid vesicles; stimulation by saturating full agonist NECA: 8 fold
